From the nanobody polyreactivity screen of Harvey et al. (2022) come the findings set out here.

A short description of this series: yeast display, Sf9 membrane polyspecificity reagent, FACS + sequencing; frameworks hold sequencing errors. The gist of the method:
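A synthetic nanobody library was expressed on Saccharomyces cerevisiae BJ5465 by galactose induction for 36–48 hours. The library was stained for 1 hour at 4 °C with 10% biotinylated, detergent-solubilized Sf9 membrane reagent and enriched with streptavidin microbeads before FACS. Low and high (top ~1%) gates were set on anti-HA fluorescence for expression and streptavidin fluorescence for reagent binding, and each polyreactivity label reflects the gate of origin.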
For “QVQLVESGGGLVQAGGSLRLSCAASGGTFHYYAMGWYRQAPGKERELVAAINRSGDSTYYADSVKGRFTISRDNAKNTVYLQMNSLKPEDTAVYYCAVSYYGADGNPFPHDYWGQGTQVTVSS”, the “polyreactivity (PSR sort gate)” value is reported as “low polyreactivity”. As for “QVQLVESGGGLVQAGGSLRLSCAASGSIFGFNAMGWYRQAPGKERELVAAISGRGTGTYYADSVKGRFTISRDNAKNTVYLQMNSLKPEDTAVYYCYTYYYWGQGTQVTVSS”, the entry is “high polyreactivity”.

For the sequence “QVQLVESGGGLVQAGGSLRLSCAASGFTFGSNAMGWYRQAPGKERELVAAINYSGVRTYYADSVKGRFTISRDNAKNTVYLQMNSLKPEDTAVSYCAKKRSKPISFDYWGQGTQVTVSS”, the “polyreactivity (PSR sort gate)” value was “high polyreactivity”. As for “QVQLVESGGGLVQAGGSLRLICAASGSIFADYAMGWYRQAPGKERELVAAITGGTSTYYADSVKGRFTISRDNAKNTVYLQMNSLKPEDTAVYYCAAYYYWEFSYYEYDYWGQGSQVTVSS”, the entry is “low polyreactivity”; as for “QVQLVESGGGLVQAGGSLRLSCAASGFTFRWYTMGWYRQAPGKERELVAAISWSGTSTYYADSVKGRFTISRDNAKNTVYLQMNSLKPEDTAVYYCAAADFYYTGADDYWGQGTQVTVSS”, “high polyreactivity”; as for “QVQLVESGGGLVQAGGSLRLSCAASGRIFRYYTMGWYRQAPGKERELVAAITSSSGSTYYADSVKGRFTISRDNAKNTVYLQMNSLKPEDTAVYYCNAVRYTTQTPKVDYGYWGQGTQVTVSS”, “high polyreactivity”. As for “QVQLVESGGGLVQAGGSLRLSCAASGSIFHDYAMGWYRQAAGKERELVAVISTSGGSTYYADSVKGRFTISRDNAKNTVYLQMNSLKPEDTAVYYCAADPFDGYSSSEYDYWGQGTQVTVSS”, the entry is “low polyreactivity”; as for “QVQLVESGGGLVQAGGSLRLSCAASGSTFQVYTKGWYIQAPGKEREFVASISWSGSSTYYADSVKGRFTISRDNAKNTVYLQMNSLKPEDTAVYYCAARARIKYLADPGYYWGQGTQVTVSS”, “high polyreactivity”; as for “QVQLVESGGGLVQAGGSLRLSCAASGFIFKGYAMGWYRQAPGKERELVAAISSGGSTNYADSVKGRFTISRDNAKNTVYLQMNSLKPEDTAVYYCAAGRYIRHYWYGYWGQGTQVTVSS”, “high polyreactivity”. The same measure for “QVQLVESGGGLVQAGGSLRLSCAASGSTFVQYAMGWYRQAPGKERELVAAITSGGRTNYADSVKGRFTISRDNAKYTVYLQMNSLKPEDTAVYYCAARYGSNSPRGYEYYYWGQGTQVSVSS”: “low polyreactivity”; for “QVQLVESGGGLVQAGGSLRLSCAASGLIFIHNTMRWYRQAPGKERELVAAISWSGASTYYADSVKGRFTISRDNAKNTVYLQMNSLKPEDTAVYYCNAGYRYSIYDYWGQGTQVTVSS”: “low polyreactivity”. Regarding “QVQLVESAGGLVQAGGSLRLSCAASGRILPSNAMGWYRQAPGKERELVAGITSGGSTDYADSVKGRFTISRDNAKNTVYLQMNSLKPEDTGVFYCAADSRRYGVRFDYWGQGTQVTVSS”, the “polyreactivity (PSR sort gate)” value is “low polyreactivity”. As for “QVQLVESGGGLVQAGGSLRLSCAAAGNIFSPYAMGWYIQAPGKERELVAAISYSGGSTYYADSVKGRFTISRDIAKNTFYLQMNSLKPEDTAVYYCAVVYSYYLAVLGYWDYDYWGQGTQVTVSS”, the entry is “low polyreactivity”. As for “QVQLVESGGGLVQAGGSLRLSCAASGRIIRYYAMGWYRQAPGKERELVAAISKSGGSTYYADSVKGRFTISRDNAKNTVYLQMNSMKREDTAVFFCAAGTSRYVYHSYGKYEYWGQGTQVTVSS”, the entry is “high polyreactivity”; as for “QVHLVESGGGLVQAGGSLRLSCAASGITFEGYAMGWYRQAPGKERELVAAIRSSGTSTYYADSVKGRFTISRDNAKNTVYLQMNSLKPEDTAVYYCNRARSSSRYDYWGQGTQVTVSS”, “low polyreactivity”; as for “QVQLVESGGRLVQAGGSLRLSCAASGSTFSPYTMGCYRQAPGKERELVAGISKSGGRTYYADSVKGRFTISRDNAKNTVYLQMNCLKREVTAVYYCATRSTTDFYCGQGTQVTVSS”, “high polyreactivity”. On to “QVQLVESGGGLVQAGGSLRLSCAASGSTFEVNAMGWYRQAPGKERELVASITDGGITNYADSVKVRFTISRDNAKNTVYLQMNSLKPEDTAVYYCAAVGWYYSYYYFWGGYWGQGTQVTVSS”, for which the “polyreactivity (PSR sort gate)” value was “high polyreactivity”. As for “QVQLVESGGGLVQAGGSLRLSCAASGSIFNYYGMGWYRQAPGKERELVAAISYSGGSTYYADSVKGRFTISRDNAKNTVYLQMNSLKPEDTAVYYCAKRYYPVIRYHSTYDSWGQGTQVTVSS”, the entry is “low polyreactivity”.

Take “QVQLVESGGGLVQAGGSLRLSCAASGRTFGLYDMGWYRQAPGKERELVAGITRRGGCTYYADSVKGRFTISRDNAKNTVYLQMYSLKPEDTAVYYCAAGTIYLRHAQSPFDYWGQGTQVTVSS”: the “polyreactivity (PSR sort gate)” value was “high polyreactivity”. Take “QVQLVESGGGLVQAGGSLRLSCAASGRIFRPYAMGWYRQAPGKERELVAGITSSGGSTYYADSVKGRFTISRDNAKNTVYLQMNSLKPEDTAVYYCAADYGWGSGFEYDYWGQGTQVTVSS”: the “polyreactivity (PSR sort gate)” value is “low polyreactivity”.

As for “QVQLQESGGGLVQAGGCLSCTASGTIFGQGDMGWYRPAPGKERELVATINDGASTYYADSVKGRFTISRDKAKNTVYLQKNSLNQDDTAVYYCAVFTDITTYFGYWGQGTQVTVSS”, the “polyreactivity (PSR sort gate)” value is reported as “low polyreactivity”. The same measure for “QVQLVESGGGLVQAGGSLRLSCSASGRTFSSNAMGWYRKAPGKERELVAAITWSGGTTYYADSVKGRFTISRDNAKNTVYLQMNSQKPEDTAVYYCNAKRRGYTASVGYWGQGTQVTVSS”: “high polyreactivity”. The same measure for “QVQLEESGGGLVQAGGSLRLSCAASGRTFKLNAMGWYRQAPGKERELVAAISRNGGSTYYADSVKGRFTISRDNAKNTVYLQMNSLKPEDTAVYYCAAVRHGVSLAGYYWGQGTQVTVSS”: “high polyreactivity”.

Consider “QVQLVESGGGLLQAGGSLRLSCAASGFTFGGNAMGWYRQAPGKERELVAAITSRGGSTYYADSVKGRFTISRDNAKNTFYLQMYSLKPEDTAVYYCAAQFTTRYDWGQGTQVTVSS”, for which the “polyreactivity (PSR sort gate)” value is given as “high polyreactivity”. As for “QVQLVESGGGLVQAGGSLRLSCAASGSTFLNNAMGWYRQAPGKERELVATITSGGITNYADSVKGRFTISRDNEKNTVYLQMNSLKPEDTAVYYCNADTWGFTYYYWGQGTQVTVSS”, the entry is “low polyreactivity”. As for “QVQLVESGGGLVQAGGSLRLSCAASGRTFRRNAMGWYRQAPGKERELVATITGGGRTNYADSVKGRFTISRDNAKNTVYLQMNSLKPEDTAVYYCAAAAGSYNTGYGYWGQGTQVTVSS”, the entry is “high polyreactivity”; as for “QVQLVESGGGLVQAGGSLRLSCAASGRTFRLYAMGWYRDATGKERELFAAISRRGTSTHYADSVKGRFTISRDNAKNTVYLQMNSLKPEDTAVYYCAVDSNTYSFYGTHDDWGQGTQVTVSS”, “high polyreactivity”; as for “QVQLVESGGGLVQAGGSLRLSCAASGSTFGGNAMGWYRQAPGKERELVAAITVGGDSPYYADSVKGRYTISRDNAKNTVYLQMNSLKPEDTADYYCAARHYWWYDYWGQGTQVTVSS”, “low polyreactivity”.

For “QVQLVESGGGLVQAGGSLRLSCAASGSIFYSNAKGWYRQAPGKERELVATITWSGGRTYYADSVKGRFTISRDNAKNTVYLQMNILKPEDTAVYYCAAVSIYWGQGTQVTVSS”, the “polyreactivity (PSR sort gate)” value is recorded as “low polyreactivity”.

As to “QVQLVESGGGLVQAGGSLRLCCAASGYIFGWYTMGWYRPAPGKERELVAAISGGGRTYYADSVKGRFTISRDNAKNTVYLQKNSLKPEDTAVYYCNAYSTYIKYDYWGQGTQVTVSS”, the “polyreactivity (PSR sort gate)” value is on record as “high polyreactivity”.
